According to patent publication US8088892B2, “Inhibitors of proteins from the Rho-GEF family” (Centre National de la Recherche Scientifique (C.N.R.S.), priority 2002, dated 2012):
One block for each molecule: values may come before it.

Target: TrioGEFD2 (Homo sapiens, UniProt O75962)
Assay: In vitro guanine nucleotide exchange (GEF) assay on RhoA
Format: biochemical
Parameters: using recombinant GST-TrioGEFD2 (a.a. 1848-2298), TrioDH2 (a.a. 1848-2096); made in house
Settings: 20-fold molar excess (8 μM) inhibitor, 0.4 μM GST-GEFD2, 0.3 μM [3H]GDP-RhoA, 15 min
Protocol: For that purpose, aptamers, TrioGEFD2 and RhoA are expressed as GST-fusion proteins. RhoA is loaded with ^3H-GDP, and the release of GDP is followed after addition of GEFD2 in presence or in absence of the selected aptamers (as described in Debant et al., 1996).
A 20-fold molar excess (8 μM) of GST-aptamers TRIAPα, TRIAPβ (another TrioGEFD2 binding aptamer), TRIAPγ (another TrioGEFD2 binding aptamer) or the empty thioredoxine (Trx) were pre-incubated with 0.4 μM GST-GEFD2 (left side of FIG. 2A) or 0.4 μM GST-DH2 (right side of FIG. 2A), as indicated, before adding 0.3 μM of [^3H]GDP loaded GST-RhoA. The exchange activity was monitored by the decrease of [^3H]GDP bound-RhoA after 15 min (see Materials and Methods). The amount of [^3H]GDP bound-RhoA incubated without GEF (first bar on the left) was defined as 100% The values and errors bars were calculated from at least three independent experiments.
0.4 μM GST-GEFD2 were incubated with increasing amounts of GST-TRIAPα (grey bars) or GST (black bars), and the exchange assay was then performed on 0.3 μM RhoA, as described in A.
An in vitro guanine nucleotide exchange (GEF) assay was used to test whether the TrioGEFD2-binding aptamers could inhibit the catalytic activity of TrioGEFD2 towards RhoA. For this purpose, the aptamers TRIAPα, TRIAPβ and TRIAPγ (including the Trx gene) were excised from pEG202 as EcoRI/NotI fragments and cloned into pGEX4T1 EcoRI/NotI. The aptamers were then expressed and purified from bacteria as GST fusion proteins, using standard procedures (Smith and Johnson, 1988). GTPase-GST fusion proteins were prepared, loaded with [^3H]GDP and the guanine nucleotide release assays were performed as described (Debant et al., 1996), using recombinant GST-TrioGEFD2 (a.a. 1848-2298), TrioDH2 (a.a. 1848-2096). For each point, 0.3 μM GTPase was mixed with or without 0.4 μM GEF in presence of non-labeled GTP, and the reaction mix was filtered after 0 min and 15 mm reaction at 25° C. The catalytic activity of TrioGEFD2 was thus measured by the decrease of the GTPase-associated radioactivity. The results are expressed as the ratio “exchange after 15 min over exchange after 0 min” (% bound [^3H]GDP-RhoA). To measure the effect of the aptamers on the exchange activity, a 20-fold molar excess of GST-TRIAPs was pre-incubated with GEFD2 (or GEFD1) for 30 min on ice before the exchange assay was carried out. For each experiment, data were obtained in triplicate.

- Inhibition of TrioGEFD2 exchange activity on RhoA in vitro: had a reduced activity
B1: TRIAPα 9-33: variant of TRIAPα containing TRIPα 9-33 (SEQ ID NO: 16) inserted into the thioredoxin (protein)
chain: MSDKIIHLTDDSFDTDVLKADGAILVDFWAEWCGPICGYNLATLVMLGPSERVFCPLCEPGPCKMIAPILDEIADEYQGKLTVAKLNIDQNPGTAPKYGIRGIPTLLLFKNGEVASATKVGALSKGQLKEFLDANLA

- Inhibition of TrioGEFD2 exchange activity on RhoA in vitro: displayed fill inhibitory activity
B2: TRIAPα 9-38: variant of TRIAPα containing TRIPα 9-38 (SEQ ID NO: 10) inserted into the thioredoxin (protein)
chain: MSDKIIHLTDDSFDTDVLKADGAILVDFWAEWCGPICGYNLATLVMLGPSERVFCPLCEPCSSDIGPCKMIAPILDEIADEYQGKLTVAKLNIDQNPGTAPKYGIRGIPTLLLFKNGEVASATKVGALSKGQLKEFLDANLA

- Inhibition of TrioGEFD2 exchange activity on RhoA in vitro: displayed fill inhibitory activity
B3: TRIAPα 9-34: variant of TRIAPα containing TRIPα 9-34 (SEQ ID NO: 14) inserted into the thioredoxin (protein)
chain: MSDKIIHLTDDSFDTDVLKADGAILVDFWAEWCGPICGYNLATLVMLGPSERVFCPLCEPCGPCKMIAPILDEIADEYQGKLTVAKLNIDQNPGTAPKYGIRGIPTLLLFKNGEVASATKVGALSKGQLKEFLDANLA

- Inhibition of TrioGEFD2 exchange activity on RhoA in vitro: displayed fill inhibitory activity
B4: TRIAPα 1-33: variant of TRIAPα containing TRIPα 1-33 (SEQ ID NO: 18) inserted into the thioredoxin (protein)
chain: MSDKIIHLTDDSFDTDVLKADGAILVDFWAEWCGPAREGADGAICGYNLATLVMLGPSERVFCPLCEPGPCKMIAPILDEIADEYQGKLTVAKLNIDQNPGTAPKYGIRGIPTLLLFKNGEVASATKVGALSKGQLKEFLDANLA

- Inhibition of TrioGEFD2 exchange activity on RhoA in vitro: did not alter its inhibitory effect
B5: TRIAPα 9-42: variant of TRIAPα containing TRIPα 9-42 (SEQ ID NO: 6) inserted into the thioredoxin (protein)
chain: MSDKIIHLTDDSFDTDVLKADGAILVDFWAEWCGPICGYNLATLVMLGPSERVFCPLCEPCSSDIYELMGPCKMIAPILDEIADEYQGKLTVAKLNIDQNPGTAPKYGIRGIPTLLLFKNGEVASATKVGALSKGQLKEFLDANLA

- Inhibition of TrioGEFD2 exchange activity on RhoA in vitro: displayed fill inhibitory activity
B6: TRIAPα 9-40: variant of TRIAPα containing TRIPα 9-40 (SEQ ID NO: 8) inserted into the thioredoxin (protein)
chain: MSDKIIHLTDDSFDTDVLKADGAILVDFWAEWCGPICGYNLATLVMLGPSERVFCPLCEPCSSDIYEGPCKMIAPILDEIADEYQGKLTVAKLNIDQNPGTAPKYGIRGIPTLLLFKNGEVASATKVGALSKGQLKEFLDANLA

- Inhibition of TrioGEFD2 exchange activity on RhoA in vitro: displayed fill inhibitory activity
B7: TRIAPα 9-36: variant of TRIAPα containing TRIPα 9-36 (SEQ ID NO: 12) inserted into the thioredoxin (protein)
chain: MSDKIIHLTDDSFDTDVLKADGAILVDFWAEWCGPICGYNLATLVMLGPSERVFCPLCEPCSSGPCKMIAPILDEIADEYQGKLTVAKLNIDQNPGTAPKYGIRGIPTLLLFKNGEVASATKVGALSKGQLKEFLDANLA
